The text below walks through data of PMC5242468.

Assay [1] concerns the target β-Glucuronidase (GusA) (E. coli MG1655), P05804. Put plainly: SEC; after 65°C and pH 5 for 20 min (high temperature and acidic pH); data not shown. To be noted: remark: other sources report otherwise. A general note: SEC sorts molecules by how far they enter the pores of the column.
Assay [2] has the same target. In words: SEC; gel filtration of the freshly purified enzymes against reference proteins (thyroglobulin, aldolase, albumin, ovalbumin, chymotrypsinogen A); results name a Superose 12 10/300 column, methods name a ZORBAX GF-250 HPLC column, 130 mM NaCl/20 mM Na2HPO4 pH 7.0, 23°C. The note with it: remark: other sources report otherwise.

B1: β-Glucuronidase (GusA), P05804 1-603 (enzyme)
chain: MLRPVETPTREIKKLDGLWAFSLDRENCGIDQRWWESALQESRAIAVPGSFNDQFADADIRNYAGNVWYQREVFIPKGWAGQRIVLRFDAVTHYGKVWVNNQEVMEHQGGYTPFEADVTPYVIAGKSVRITVCVNNELNWQTIPPGMVITDENGKKKQSYFHDFFNYAGIHRSVMLYTTPNTWVDDITVVTHVAQDCNHASVDWQVVANGDVSVELRDADQQVVATGQGTSGTLQVVNPHLWQPGEGYLYELCVTAKSQTECDIYPLRVGIRSVAVKGEQFLINHKPFYFTGFGRHEDADLRGKGFDNVLMVHDHALMDWIGANSYRTSHYPYAEEMLDWADEHGIVVIDETAAVGFNLSLGIGFEAGNKPKELYSEEAVNGETQQAHLQAIKELIARDKNHPSVVMWSIANEPDTRPQGAREYFAPLAEATRKLDPTRPITCVNVMFCDAHTDTISDLFDVLCLNRYYGWYVQSGDLETAEKVLEKELLAWQEKLHQPIIITEYGVDTLAGLHSMYTDMWSEEYQCAWLDMYHRVFDRVSAVVGEQVWNFADFATSQGILRVGGNKKGIFTRDRKPKSAAFLLQKRWTGMNFGEKPQQGGKQ
As a reminder, the stoichiometry N is a count of units in the complex or per binding partner. For B1, the stoichiometry N in assay [1] and in assay [2] was 4 throughout.
